Experimental data taken from patent US20050142101A1.

How the values were obtained:
[1] = biological target: CCL11 (eotaxin) (Homo sapiens (Human)) (UniProt P51671)
[2] = biological target: CCL14[9-74] (human) (UniProt Q16627)
[3] = biological target: CXCL12 (SDF-1α) (Homo sapiens (Human)) (UniProt P48061)

CD26/DPP IV processing in vitro, MALDI mass spectrometry (time to complete processing) [1]: 1 h
CD26/DPP IV processing in vitro, MALDI mass spectrometry (time to complete processing) [2]: 12 h
CD26/DPP IV processing in vitro, MALDI mass spectrometry (time to complete processing) [3]: 10 min
Substance: porcine kidney DPP IV/CD26 (from UniProt P22411) (enzyme)
